Positions count from the first letter of the chain named. Blank lines part the entries; values can stand above or below the binder they belong to.
Target: T1, human VISTA on the surface of cells (human, UniProt Q9H7M9 33-295)
T1 sequence: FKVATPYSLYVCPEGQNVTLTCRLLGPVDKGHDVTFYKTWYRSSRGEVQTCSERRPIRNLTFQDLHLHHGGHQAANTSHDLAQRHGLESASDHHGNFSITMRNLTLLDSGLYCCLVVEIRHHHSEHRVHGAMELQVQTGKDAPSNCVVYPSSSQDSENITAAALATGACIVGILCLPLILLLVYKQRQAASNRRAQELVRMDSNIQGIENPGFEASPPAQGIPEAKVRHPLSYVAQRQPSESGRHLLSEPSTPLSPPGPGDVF
Experiment: cell-based or functional assay

IC50, CPM (proliferation), SEB assay: -1.12 log10 of antibody concentration | IC50, Gamma (IFN-g), SEB assay: 0.05 log10 of antibody concentration
B2: VSTB95 (antibody, human IgG1, V domains shown)
VH: EVQLVESGGGLVQPGGSLRLSCAASGFTFRNYGMSWVRQAPGKGLEWVASIISGGSYTYYPDSVKGRFTISRDNAKNSLYLQMNSLRAEDTAVYYCARIYDHDGDYYAMDYWGQGTTVTVSS
VL: DIVMTQSPLSLPVTPGEPASISCRSSQSIVHSNGNTYLEWYLQKPGQSPQLLIYKVSNRFSGVPDRFSGSGSGTDFTLKISRVEAEDVGVYYCFQGSHVPWTFGQGTKLEIK

IC50, CPM (proliferation), SEB assay: -1.44 log10 of antibody concentration | IC50, Gamma (IFN-g), SEB assay: -0.35 log10 of antibody concentration
B4: VSTB116 (antibody, V domains shown)
VH: QVQLVQSGAEVKKPGSSVKVSCKASGGTFSSYAISWVRQAPGQGLEWMGGIIPIFGTANYAQKFQGRVTITADESTSTAYMELSSLRSEDTAVYYCARSSYGWSYEFDYWGQGTLVTVSS
VL: DIQMTQSPSSLSASVGDRVTITCRASQSINTNLNWYQQKPGKAPKLLIYAASSLQSGVPSRFSGSGSGTDFTLTISSLQPEDFATYYCQQARDTPITFGQGTKVEIKR

The remaining lines, values behind:

B1: VSTB53 (antibody, human IgG1, V domains shown)
VH: QVQLVQSGAEVKKPGASVKVSCKASGYTFTHYTIHWVRQAPGQGLEWMGYIIPSSGYSEYNQKFKDRVTMTRDTSTSTVYMELSSLRSEDTAVYYCARGAYDDYYDYYAMDYWGQGTLVTVSS
VL: B2 VL with S28T, G96A
IC50, CPM (proliferation), SEB assay: -1.06 log10 of antibody concentration | IC50, Gamma (IFN-g), SEB assay: -1.05 log10 of antibody concentration

B3: VSTB50 (antibody, human IgG1, V domains shown)
VH: QVQLVQSGSELKKPGASVKVSCKASGYTFTNYGLNWVRQAPGQGLEWMGWINPYTGEPTYADDFKGRFVFSLDTSVSTAYLQICSLKAEDTAVYYCAREGYGNYIFPYWGQGTLVTVSS
VL: DIVMTQTPLSLSVTPGQPASISCRASESVDTYANSLMHWYLQKPGQPPQLLIYRASNLESGVPDRFSGSGSGTDFTLKISRVEAEDVGVYYCQQTNEDPRTFGQGTKLEIK
IC50, CPM (proliferation), SEB assay: -0.74 log10 of antibody concentration | IC50, Gamma (IFN-g), SEB assay: 1.69 log10 of antibody concentration
